In article PMC5623066:

Target: TDP2 used in vitro (construct not stated) (UniProt O95551)

With “SUMO2 used in vitro (from UniProt P61956 10-93) (natural protein)” the Kd was 880 nM.
